Source: PMC8142927, “Destabilization of EpCAM dimer is associated with increased susceptibility towards cleavage by TACE” (PeerJ, 2021)
Positions count from the first letter of the chain named. Names may count otherwise.

Biological target: the molecule itself
Experiment: SEC-MALS; SEC with right- and low-angle laser light scattering detectors (SEC-RALLS/LALLS, OMNISEC), Superdex 200 Increase 10/300 GL, 150 μg of protein injected per run, 25 °C, 0.5 ml/min, 20 mM HEPES, pH 7.5, 100 mM NaCl; dimer to monomers

B1: EpEX (EpCAM extracellular part, residues 24-265, with mutated N-glycosylation sites N74Q, N111Q and N198Q) (domain or fragment, human)
chain: QEECVCENYKLAVNCFVNNNRQCQCTSVGAQNTVICSKLAAKCLVMKAEMQGSKLGRRAKPEGALQNNDGLYDPDCDESGLFKAKQCQGTSMCWCVNTAGVRRTDKDTEITCSERVRTYWIIIELKHKAREKPYDSKSLRTALQKEITTRYQLDPKFITSILYENNVITIDLVQQSSQKTQNDVDIADVAYYFEKDVKGESLFHSKKMDLTVNGEQLDLDPGQTLIYYVDEKAPEFSMQGLKLE
notes: Epithelial cell adhesion molecule (EpCAM, CD326), human, extracellular part EpEX, residues 24-265, N-glycosylation sites mutated; residues translated from the XhoI scar, between K265 and the His6-tag; in solution it is a dimer in equilibrium with a small amount of monomer; also called wild type-like EpEX; non-glycosylated EpEX variant; source: Sf9 insect cells (baculovirus), culture supernatant, …
  stoichiometry N: 2

B2: EpEX L264C (domain or fragment, human)
chain: B1 chain with L241C
modifications: disulfide bond between the introduced cysteine residues (C264) of the two subunits
notes: residues translated from the XhoI scar, between K265 and the His6-tag; Derived from m1; the protein is a constitutive dimer of two subunits linked by a disulfide; PDB 4mzv is the parent EpEX; also called disulfide-stabilized dimeric form; covalently stabilized EpEX dimer; source: Sf9 insect cells (baculovirus), culture supernatant, purified (His-tag column, ion exchange, SEC); not shown: His6, …
  stoichiometry N: 2
